US20060246421A1

Molecular target: wild-type NS3 protein of hepatitis C virus (hepatitis C virus) (UniProt Q9WMX2)
Experiment: cell-based or functional assay

D290A NS3 (ATPase-deficient mutant NS3 protein) (from UniProt Q9WMX2 1027-1657)
fold decrease in activity of the HCV-Luc replicon (luciferase) in Huh-7 cells, 48 h: 9 fold
